Our source for the Kd, koff and kon values is patent US20250101096A1 (SERA PROGNOSTICS, published 2025).

Assay [1] deals with T1, human sex hormone-binding globulin (SHBG) (human, UniProt P04278 30-402, O-linked glycan at T36 (native glycosylated form)).
T1 construct: Purified human SHBG, the SHBG antigen of the SPR runs, or SHBG in human serum; also called SHBG protein
T1 sequence: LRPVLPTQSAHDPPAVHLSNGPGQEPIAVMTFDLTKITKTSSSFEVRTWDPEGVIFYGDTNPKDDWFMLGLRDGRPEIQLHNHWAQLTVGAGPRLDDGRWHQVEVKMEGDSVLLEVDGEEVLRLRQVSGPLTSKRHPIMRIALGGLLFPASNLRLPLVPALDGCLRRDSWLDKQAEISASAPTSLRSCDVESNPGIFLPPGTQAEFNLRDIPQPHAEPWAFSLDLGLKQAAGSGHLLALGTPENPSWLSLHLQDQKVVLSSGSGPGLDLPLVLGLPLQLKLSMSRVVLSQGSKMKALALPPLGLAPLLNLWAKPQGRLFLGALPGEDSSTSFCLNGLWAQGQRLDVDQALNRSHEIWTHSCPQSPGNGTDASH
Briefly: Biacore, hybridoma supernatant.

Assay [2] addresses T1, human sex hormone-binding globulin …. Briefly: SPR (Biacore T100), mAb captured on anti-mouse IgG, SHBG antigen injected, 1:1 fit, assay 1. Here is the method: (§1) Surface plasmon resonance experiments were performed on a BiacoreT100 to characterize the anti-SHBG and anti-IBP4 antibodies. Anti-mouse-IgG antibody was amine coupled to ˜500 RU on a C1 sensor chip using standard NHS/EDC activation. Test monoclonal antibodies were captured on the anti-mouse-IgG surfaces. The binding for the Sex Hormone Binding Globulin Antigen to anti-SHBG variant antibodies 4G10.F8 and 13C9.E5 were measured in a multi-cycle kinetic mode. Binding studies were performed in PBS buffer+0.05% P20+3 mM EDTA at 25 degrees C. SHBG was captured for 1 minute at 200 nM and regenerated with 1/100 H3PO4 after each cycle. SHBG was captured to similar densities on 2 different flow cells followed by an injection of the SHBG antigen in a 3-fold titration series up to 600 nM over the two surfaces. The responses were processed by subtracting the buffer injection to correct for drift. The data sets fit well to a simple 1:1 interaction model using SCRUBBER (Biologic Software Pty Ltd). The antigen concentration series was tested three times over each surface, giving rise to the kinetic an affinity parameters summarized below.

Assay [3] shares this target. The assay can be described thus: SPR (Biacore T100), mAb captured on anti-mouse IgG, SHBG antigen injected, 1:1 fit, assay 2. Here is the method:
as §1
In general terms: Surface plasmon resonance follows binding to a sensor surface in real time, without labels.

Assay [4] shares this target. Briefly: SPR (Biacore T100), mAb captured on anti-mouse IgG, SHBG antigen injected, 1:1 fit, assay 3. Here is the method:
as §1

Assay [5] has the same target. Briefly: SPR (Biacore T100), mAb captured on anti-mouse IgG, SHBG antigen injected, average of 3 assays. Here is the method:
as §1

Assay [6] shares this target. Briefly: SPR (Biacore T100), mAb captured on anti-mouse IgG, SHBG antigen injected, 1:1 fit, assay 3; assay 3. Here is the method: as §1
Assay [7] has as its target T2, C-terminal IBP4 fragment (amino acids 157-258) (human, UniProt P22692 157-258).
T2 construct: also called CT-IBP4; C-term IBP4
T2 sequence: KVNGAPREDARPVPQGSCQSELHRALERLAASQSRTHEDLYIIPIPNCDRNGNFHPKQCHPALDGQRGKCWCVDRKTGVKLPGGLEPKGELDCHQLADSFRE
Briefly: SPR (Biacore T100), mAb amine-coupled to C1 chip, CT-IBP4 injected, average. Here is the method:
(§2) For this reason, anti-IBP4 antibodies were directly amine coupled using standard NHS/EDC coupling to a C1 sensor chip. Variant 5B3.G9 was coupled on two surfaces at 350 RU and the other at 150 RU. […] Antibodies were measured in a multi-cycle kinetic mode. Binding studies were performed in PBS buffer+0.05% P20+3 mM EDTA at 25 degrees C. CT-IBP4 was tested in a 3-fold concentration series up to 333 nM and injected at 100 uL/min for 3 minutes followed by a 10 minute dissociation phase. Surfaces were regenerated with 1/100 H3PO4 after each cycle. The antigen binding responses were processed by subtracting the signal from a reference surface with no antibody captured along with a buffer injection. The processed response data were globally fit to a simple 1:1 interaction using SCRUBBER (Biologic Software Pty Ltd). The antigen concentration series was tested three times over each surface, giving rise to the kinetic an affinity parameters summarized in the tables below.

The target in assay [8] is T2, C-terminal IBP4 fragment (amino acids …). The assay can be described thus: SPR (Biacore T100), mAb amine-coupled to C1 chip, CT-IBP4 injected, 1:1 fit, first surface assay 1. Here is the method:
as §2

The target is the same in assay [9]. Briefly: SPR (Biacore T100), mAb amine-coupled to C1 chip, CT-IBP4 injected, 1:1 fit, first surface assay 2. Here is the method:
as §2

For assay [10] the target is unchanged. The assay can be described thus: SPR (Biacore T100), mAb amine-coupled to C1 chip, CT-IBP4 injected, 1:1 fit, first surface assay 3. Here is the method:
as §2

Assay [11] has the same target. Briefly: SPR (Biacore T100), mAb amine-coupled to C1 chip, CT-IBP4 injected, 1:1 fit, second surface assay 1. Here is the method:
as §2

Assay [12] shares this target. Briefly: SPR (Biacore T100), mAb amine-coupled to C1 chip, CT-IBP4 injected, 1:1 fit, second surface assay 2. Here is the method:
as §2

Assay [13] shares this target. The assay can be described thus: SPR (Biacore T100), mAb amine-coupled to C1 chip, CT-IBP4 injected, 1:1 fit, second surface assay 3. Here is the method: as §2
For assay [14] the target is unchanged. The assay can be described thus: SPR (Biacore T100), mAb amine-coupled to C1 chip, CT-IBP4 injected, 1:1 fit, assay 1. Here is the method:
as §2

For assay [15] the target is unchanged. The assay can be described thus: SPR (Biacore T100), mAb amine-coupled to C1 chip, CT-IBP4 injected, 1:1 fit, assay 2. Here is the method: as §2
Assay [16] has the same target. Briefly: SPR (Biacore T100), mAb amine-coupled to C1 chip, CT-IBP4 injected, 1:1 fit, assay 3. Here is the method: as §2

B1: anti-SHBG antibody clone variant 4G10.F8 (antibody, mouse IgG2a, kappa)
heavy: QVQLQQPGAELVKPGASVKMSCKASGYTFTGYWMHWVKQRPGQGLEWIGVIDPSTGYTTYNEKFKGKATLTVDTSSNTAYMQLSSLTSEDSAVYYCTREPLVTADFEYWGQGTTLTVSSAKTTAPSVYPLAPVCGDTTGSSVTLGCLVKGYFPEPVTLTWNSGSLSSGVHTFPAVLQSDLYTLSSSVTVTSSTWPSQSITCNVAHPASSTKVDKKIEPRGPTIKPCPPCKCPAPNLLGGPSVFIFPPKIKDVLMISLSPIVTCVVVDVSEDDPDVQISWFVNNVEVHTAQTQTHREDYNSTLRVVSALPIQHQDWMSGKEFKCKVNNKDLPAPIERTISKPKGSVRAPQVYVLPPPEEEMTKKQVTLTCMVTDFMPEDIYVEWTNNGKTELNYKNTEPVLDSDGSYFMYSKLRVEKKNWVERNSYSCSVVHEGLHNHHTTKSFSRTPG
light: DIVMTQSQKFMSTSVGDRISVTCKASQNVDTNVAWYRQKPGQSPKALIYSASYRFSGVPDRFTGSGSGTDFTLTISTFQSEDLAEYFCQQYDSYPYTFGGGTKLEIKRADAAPTVSIFPPSSEQLTSGGASVVCFLNNFYPKDINVKWKIDGSERQNGVLNSWTDQDSKDSTYSMSSTLTLTKDEYERHNSYTCEATHKTSTSPIVKSFNRNEC
notes: Mouse monoclonal; variant form expressed from a standard backbone in CHO cells; also called SHBG (4G10.F8) Anti SHBG v1; SHBG #6
Regarding B1, the Kd was determined as 0.95 nM in assay [1]; 1.05 nM in assay [2]; 1.91 nM in assay [3]; 3.66 nM in assay [4]; 2 nM in assay [5]. In addition, the koff in [1] was 6.2e-05 s⁻¹; in assay [2], 4.57e-05 s⁻¹; in assay [3] it was 8.37e-05 s⁻¹; in assay [5], 9e-05 s⁻¹; in assay [6] it was 0.000145 s⁻¹. Besides, the kon in [1] was 65000 M⁻¹ s⁻¹; in assay [2] it was 43700 M⁻¹ s⁻¹; in assay [3], 43900 M⁻¹ s⁻¹; in [4] it was 39600 M⁻¹ s⁻¹; in assay [5], 42000 M⁻¹ s⁻¹.

B2: anti-IBP4 antibody clone variant 5B3.G9 (antibody, mouse IgG1, kappa)
heavy: EVQLQQSGPELVKPGASAKISCKASGYTFTDYYMNWVKQSHGKSLEWIGDINPNNGGSAYNQKFKGKATLTVDKSSSTAYMELRSLTSEDSAVYYCARWDGGFDYWGQGTTLTVSSAKTTPPSVYPLAPGSAAQTNSMVTLGCLVKGYFPEPVTVTWNSGSLSSGVHTFPAVLQSDLYTLSSSVTVPSSTWPSQTVTCNVAHPASSTKVDKKIVPRDCGCKPCICTVPEVSSVFIFPPKPKDVLTITLTPKVTCVVVDISKDDPEVQFSWFVDDVEVHTAQTKPREEQINSTFRSVSELPIMHQDWLNGKEFKCRVNSAAFPAPIEKTISKTKGRPKAPQVYTIPPPKEQMAKDKVSLTCMITNFFPEDITVEWQWNGQPAENYKNTQPIMDTDGSYFVYSKLNVQKSNWEAGNTFTCSVLHEGLHNHHTEKSLSHSPG
light: DIVMTQSQKFMSTSVRDRVSVTCKASQNVGTNVAWYQQKPGQSPKALIYSASYRYSGVPDRFTGSGSGTAFTLTISNVQSEDLAEYFCQQYNIYPLTFGAGTKLELKRADAAPTVSIFPPSSEQLTSGGASVVCFLNNFYPKDINVKWKIDGSERQNGVLNSWTDQDSKDSTYSMSSTLTLTKDEYERHNSYTCEATHKTSTSPIVKSFNRNEC
notes: Mouse monoclonal; variant form expressed in CHO cells; also called IBP4 (5B3.G9) V1; IBP4-5B3.G9
As for B2, the Kd came to 31 nM in [7]; 38.2 nM in assay [8]; 37 nM in assay [9]; 43.1 nM in assay [10]; 25.8 nM in assay [11]; 17.1 nM in [12]. The molecule further gave a Kd in assay [13] of 22.3 nM. Besides, the koff in assay [7] turned out to be 0.0041 s⁻¹; in assay [8], 0.00447 s⁻¹; in [9], 0.00419 s⁻¹; in [10] it was 0.00466 s⁻¹; in assay [11] it was 0.00404 s⁻¹; in assay [12], 0.0035 s⁻¹. This molecule had a koff in [13] of 0.00392 s⁻¹. In addition, the kon in assay [7] worked out at 150000 M⁻¹ s⁻¹; in assay [8] it was 117000 M⁻¹ s⁻¹; in [9], 113000 M⁻¹ s⁻¹; in [10] it was 108000 M⁻¹ s⁻¹; in [11], 157000 M⁻¹ s⁻¹; in assay [12] it was 204000 M⁻¹ s⁻¹. This molecule also gave a kon in assay [13] of 176000 M⁻¹ s⁻¹.

B3: anti-IBP4 antibody clone variant 7D6.G4 (antibody, mouse IgG1, kappa, V domains shown)
VH: EVQLQQSGPELVKPGASVKISCKASGYTFTDYYMNWVKQSHGKSLEWIGDINPNNGGSAYNQKFKGKATLTVDKSSSTAYMELRSLTSEDSAVYYCARWDGGFDYWGQGTTLTVSS
VL: DIVMTQSQKFMSTSVRDRVSVTCKASQNVGTNVAWYQQKPGQSPKALIYSASYRYSGVPDRFTGSGSGTDFTLTISNVQSEDLAEYFCQQYNSYPLTFGAGTKLELKR
notes: Mouse monoclonal; variant form; also called IBP4 (7D6.G4) V2; IBP4-7D6.G4
Regarding B3, the Kd turned out to be 76 nM in assay [7], 96.2 nM in assay [14], 56.1 nM in assay [15] and 75.9 nM in assay [16]. Also, the koff in assay [7] was 0.013 s⁻¹; in assay [14], 0.0146 s⁻¹; in [15] it was 0.0119 s⁻¹; in [16], 0.0128 s⁻¹. Moreover, the kon came to 180000 M⁻¹ s⁻¹ in [7], 152000 M⁻¹ s⁻¹ in [14], 211000 M⁻¹ s⁻¹ in assay [15] and 168000 M⁻¹ s⁻¹ in [16].

By Kd is commonly meant the free concentration of one partner at which half of the binding sites on the other are occupied at equilibrium, for simple one-to-one binding. Low readings indicate a tighter complex, high ones a looser complex. What is called koff is a measure of how fast the partners let go of each other. Higher therefore signals a short-lived complex. As usually defined, the kon is a measure of how fast the partners come together.
